The DeepSol protein solubility set

Assay: soluble on expression in E. coli; label from the status in PepcDB or PDB records

Sequence | soluble on expression in E. coli
MAHHHHHHMWRCGMMPRTRVLRFVWKQSYRDLLPPAAASAYVCGQLRWCDSCDGGGVPAVLESPSDAAGVYSFFSQSTASAVRALRDVTRSAHSLSITDRRLALDGLAVLLRENADLLASADALVTGMCLRDARRSLDAALNFILFCEQRLRTPTAAATTAVIMKDAASVDAEEVLHSFGCGGANICGDSHSVSTLTGKSSVALCVTAANYPLQWGMETVATALLRGSAAVWLPSLDTPLSALWLMHLLHRSNKNVVADSRGAVNIILCRADDVVAAFSRQQESGLSIVGLKNGFRDHQLSRNHQAHGIPSAISHGSISCITRWYHRVMKPSLAVVGSGHHHTETMAVRLDASRVAALICQHAFHGNGRMLYALHIAFVPKQDVLPVLQSVVQYVRNLRLGHSLDPSVNMGPLPGAAHMAAMKETVEAAVCCGDFKLQHVCGGFDVAMPAGFFCLPCAFYATVANVTPAGTEMSIRVLCETTARLRFGLDRLGGGPFVVVCGYDPPQQREALEVVLREKEQYVLHYW | not soluble
MTGLDKIISQILEDAGKEAQEISEKAKSEAEAVLAEAKAGCKKIAAENDEKLAGEATSYMERIKSSAELKKRQAVLLAKQQVITEMLEQAYEALLKKEGEEYFALIGKMLDKYVLPKTGEIYFSEKDLDRMPQGFEAVIEKAAVSKGGSLTLVKEPKNIDGGFILVYGGIEENCSFRALLAARRDELSDKVHAMLFS | not soluble
MGSDKIHHHHHHMAGKLFIVILTPVCNGNCLYCGGYDEGLMPPKIQYPLESLKKIADGNSVAFYGGEPLLEMEKMKEIMDSVKAEHFILQTNGLKLNRLEDEYIRRFSTILVSFDGRREVHDLYRGNYERVLENVLNVRRKGFEGELIARMVASQETDIYEDVMHILNLDCFTHVHWQIDAVWSSDGVWRDFERWVERYNAGVRKLVKFWASELRKGVLHGLVPFMGVATAIFKPFTHPPCSSGFESFAIATDGRILACPICPDLDWNEVGSLDEGIKRRLEILEPCLSCSYFRFCGGRCVFFNRERLWGDRGFRLVCSTVKNLVDSILACKHLILANKEKIMYPRFLNTTEIIP | not soluble
MTGRTGGNGSTQAQPERVMLVGVMLDKDGTGSSAARLNGFQTALAEAVELVKAAGGDSVRVETAKRDRPHTALFVGTGKAAELSEAVAADGIDLVVFNHELTPTQERNLEKELKCRVLDRVGLILAIFARRARTQEGRLQVELAQLSHLAGRLIRGYGHLQSQRGGIGMKGPGETKLETDRRLIAHRINALKKQLANLKKQRALRRKSRESGTIKTFALVGYTNVGKSSLFNRLTKSGIYAKDQLFATLDTTARRLYISPECSIILTDTVGFVSDLPHKLISAFSATLEETAQADVLLHVVDAAAPNSGQQIEDVENVLQEIHAGDIPCIKVYNKTDLLPSEEQNTGIWRDAAGKIAAVRISVAENTGIDALREAIAESCAAAPNTDETEMPLEHHHHHH | soluble
MTEPIFMVGARGCGMTTVGRELARALGYEFVDTDIFMQHTSGMTVADVVAAEGWPGFRRRESEALQAVATPNRVVATGGGMVLLEQNRQFMRAHGTVVYLFAPAEELALRLQASLQAHQRPTLTGRPIAEEMEAVLREREALYQDVAHYVVDATQPPAAIVCELMQTMRLPAA | soluble
MNPVAFIREKREGKKHRREDLEAFLLGYLRDEVPDYQVSAWLMAAFLRGLDPEETLWLTETMARSGKVLDLSGLPHPVDKHSSGGVGDKVSLVVGPILAASGCTFAKMSGRGLAHTGGTIDKLESVPGWRGEMTEAEFLERARRVGLVIAAQSPDLAPLDGKLYALRDVTATVESVPLIASSIMSKKLAAGARSIVLDVKVGRGAFMKTLEEARLLAKTMVAIGQGAGRRVRALLTSMEAPLGRAVGNAIEVREAIEALKGEGPGDLLEVALALAEEALRLEGLDPALARKALEGGAALEKFRAFLEAQGGDPRAVEDFSLLPLAEEHPLRAEREGVVREVDAYKVGLAVLALGGGRKRKGEPIDHGVGVYLLKKPGDRVERGEALALVYHRRRGLEEALGHLREAYALGEEAHPAPLVLEAI | soluble
MGSDKIHHHHHHMLATYLKSLNENDRSLYNEGEDVIQGLIQSPKTLPPKYFYDDYGSELFEQICELSEYYPTRTEAWILRQYADEIAQITGNCELVELGSGSSTKTLFLLDAYQKIASHCRYIPIDVSHGILKSSVLKLQQKYPNFFVEGLIGTYEQALIKLESTFAASRMIFFLGSSLGNFNPRECDDFLRQITRTLQAGDYFLLGIDLQKPKEILEPAYNDSQGVTAAFNLNILSHLNWRFQGNFDLSLFTHQAIYNENDAQIEMYLHCQKSHEVSLEALDLQVSFAGGESILTEISRKFDLVNMQKQLETHGLKTLKTWTDPNQWFGLILCQA | not soluble
DPVSDITDLNYWKTPEQFDSFVFGLHSRFRSHSWNMFLLGEARSDVFGGIPFGGEATQGMERFPYNTLNAENPGISGFGDLYQNINQMNLFISRTLHTDVLTESARNYYLGQVYGLRAYYMYQLYRSWGDVVFTEEPSLGFEVGKLAKAATPAAEIFEQVKKDIESSLSYFGSDYTIKEKKSLWSKAATLMLKADVYLWSAHRDGGEGDARTAKNALVDIQNNISRSNLDLMDTYQGVFAYDNKGNKEIIFTIHNELFEYNLWNGNNDLFPQADYLGKFYNADGTLINTSVENNFGIMRLMVKLENFKKFLPGDTRRDVTLKDVYNKVENGKLELVGVYPHKYWGVMNGSTRVRCDDYPIYRYSDLLLMLAEAKVLLGEDPATEINRVRRRAFGDAYDASTVGFPNQEVDKRPADAVLQERLFEFMLEGKRWYDLRRFGDSYVLDYTPAEPARLLWPINQGALTNNPLLKQTVGY | soluble
MANKLTVLASVVAASSAMLSLSASAAESTLDKVLSQGFITCGVSTGLPGFSNPNAKGEWEGIDVEYCQAMAAAVLGDKTKVKFVPLTAKERFTALQSGEIDVLSRNTTWTLQRDSALGLNFVGVNYYDGQGFMVKKDLGVKSAKELNGASVCVQSGTTTELNLADYFRNSGMTYKPVVFDTAAQTSKGFDAGRCDVLTTDQSGLYALRLNLEKPDSAVVLPEIISKEPLGPVVRQDDDKWFNVAKWVLYAMVNAEEYGITSKNVDEMMKSDNPEVKRILGLDGPKGTGLGIRDDWSYQIVKQVGNYGESFDRTVGSGSPLKIDRGVNALWNAGGFMYAPPIR | not soluble
MGSDKIHHHHHHMTSDIKRHIKELISGSENSEVEFKSAKGGLPESFWETFSAFANTNGGIIVLGIKEKNGIFMPDGLNKQQIDTYKKRFWDCAHNKEKVSATMLAERDVYETDIDGNFVLLFRIPRASYDIRPVYLTRNPFGNTFKRNHEGDYHCTDSEIRQMFADAHHATLPFDNQILPNYSMNDIDVATLKGYRQRFMLRKDNHPWNELDDFNFLCKIGAYRVDRENGQEGFTRAGILMFGKTESITDQVCCPWYFVDYQEKLSNNTNERWSDRIYADGSWNANLYQFFFKVYNKLSQTLPAPFLLNGIERTEETSAHIAIREALVNCIVHCNYAEQGNILIVREKDKITFRNPGRMLISVDDFYVGSQSVCRNPIIQKFFIQLGYGEKAGSGADYIVKGAIDNKWHIPALVEHVQPDTVSLYLYLNDANDTSYDANNTSYDANDTSYDANDTSYDANDTSSNEHGQRLTKETLINRVLEICEDWITIDEISEKTGKSRQYLRGRIIPEMLKLGLLEKQYPDASTSPNQKYRKKQ | not soluble
MRPMTHVPVLYQEALDLLAVRPGGVYVDATLGGAGHARGILERGGRVIGLDQDPEAVARAKGLHLPGLTVVQGNFRHLKRHLAALGVERVDGILADLGVSSFHLDDPSRGFSYQKEGPLDMRMGLEGPTAKEVVNRLPLEALARLLRELGEEPQAYRIARAIVAAREKAPIETTTQLAEIVRKAVGFRRAGHPARKTFQALRIYVNDELNALKEFLEQAAEVLAPGGRLVVIAFHSLEDRVVKRFLRESGLKVLTKKPLVPSEKEAAQNPRARSAKLRAAEKEAP | soluble
MGSDKIHHHHHHAMDNYDYETVVTLIEPDCQDSLLLITKAQALKAMNRYPEAIGVLNSLILKDSTNTKVLIDLAECYKLTGNSRRAANCYQKAMNLQPENKFFRLQFIRSLLASEDYEEARTACHGWLERDSLSATGYKYLGQAYEGLQDAASAFLSYNIAYRRDSLDAQTVARIAGIFNNNQQFKDAVDVTEVYRLSDTTNIDVNRQNAKAYCMLKEYGTAVKRYESLKELGDRSFLTLYYLGVSHYGDNWFYGAYDNLKEAYQKNPMDVNVLYYLAKASARTSWKKEGVEYMEEAFRIAVPSDSMMVRLYDGLVECYDYAGDTKKEVEALEKLYIYTKKNSILYKIACLYDWKEDEKNAIRYYRKYMATVSEDQRYALDEDGNPVEDRITLYQQAWKRIKKIKEEGFFRGDIPTKSFPVEKKDTLALRHAK | not soluble
ENPRNVGSLDKTSKNVGTGLVGAPACGDVMKLQIQVDEKGKIVDARFKTFGCGSAIASSSLATEWVKGKTVEEALTIKNTDIAKELCLPPVKLHCSMLAEDAIKAALADYKLKQESK | soluble
ERSAVQLSLSSRLQLTLYQYKTCPFCSKVRAFLDFHALPYQVVEVNPVLRAEIKFSSYRKVPILVAQEGESSQQLNDSSVIISALKTYLVSGQPLEEIITYYPAMKAVNDQGKEVTEFGNKYWLMLNEKEAQQVYSGKEARTEEMKWRQWADDWLVHLISPNVYRTPTEALASFDYIVREGKFGAVEGAVAKYMGAAAMYLISKRLKSRHRLQDNVREDLYEAADKWVAAVGKDRPFMGGQKPNLADLAVYGVLRVMEGLDAFDDLMQHTHIQPWYLRVERAITEASPAH | soluble
MGSDKIHHHHHHMVSLLRRTFSEEIKEELVNVPFGSREEVISELLGFIKARGDLDVKSRHIVFSLHSFAASRRLLNLMKYLSKPVSEIIVEKSHNIKKRYIKITAEYSESFMVIEPFFDVALFVSFLRGLFLSGGSMTNPRYHYHLEINLFEEETLALTRKSLKDFFNINAGIIELRNTRKLYIKSIKDILVFLEAIGVQRKLEEIDRIVTERKVIGDVNRTVNFIEANAIRTANSTARQIRAIELIKENMGLENLPEDLRRVALVRLRNKELSLRELGKKLNLTKSQIYSKLKRIIKIAERFGDVK | not soluble
MDTIAFAYMGGKEYEWLFFEVYDRVRRFYRDVRLPINIVYAGKIILPPGTLIRVETASGFVNMYSFEAVVEALYGKLVEMRDDVNDDSITKIFGITTFPIGSRDRYFDIYKKYLGIQVNVGDYHVLALSIKPFFTENKYLFIERVFKGVLHEIGHLYGLSHCHEDCVMNPPKDIKDWDLRTPTYCNTCLRKLKNKEELMPKLQLLEHHHHHH | soluble
MLESMTGYGSAERSEKGMKVLVELRSVNNRFAEIGVKLPRQLLSWELEVRELIRASFQRGKISAFVQLQLEEAEALPVTVNPSKVRGYKALLETVRREAEIEAPVTLDHVLRFSEIFEPDHTILEHPDEIWPIAQSALIEAIGNLKEMRRKEGEELAIDFLSRIDEIERTLKEIKEIAAGNLETIRKRLASKISAIAGCDVEYSKDRLEMEIVMAAERLDITEECIRFSSHNKFFIEELNNSSSGSGRKLNFLLQEQLREANTIASKSQNADISQKVVHIKEELEKVREQLQNIE | soluble
